Test results taken from US5693476.

Assays:
[1] = target: GST-syntaxin 1A cytoplasmic domain fusion protein (Syn 1A11, amino acids 4-266), immobilized on glutathione agarose beads (Schistosoma japonicum; rat); assay: GST-syntaxin 1A (wild type) on glutathione beads, soluble ligand, Western blot densitometry, FIG. 5B
[2] = target: GST-syntaxin 1A H3 domain construct Syn 1A16 (amino acids 191-266) (Schistosoma japonicum; rat); assay: 20S complex on GST-Syn 1A16 beads, ATP and Mg++, Western blot densitometry
[3] = target: GST-syntaxin 1A deletion mutant Syn 1A17 (amino acids 4-240) (Schistosoma japonicum; rat); assay: GST-syntaxin deletion mutant on glutathione beads, soluble ligand, Western blot densitometry; FIG. 4C row 5 from top, row label only in the figure (assigned by Table 1 order and paragraph 328)
[4] = target: GST-syntaxin 1A cytoplasmic domain fusion protein (Syn 1A11, amino acids 4-266), immobilized on glutathione agarose beads (Schistosoma japonicum; rat); assay: 20S complex assembly on GST-syntaxin beads with SNAP-25, VAMP, α-SNAP and NSF added together, ATPγS, 25° C., Western blot densitometry, FIG. 6A
[5] = target: GST-syntaxin 1A (Syn1A11) point mutant M6: A240V, V244A (Schistosoma japonicum; rat); assay: GST-syntaxin point mutant on glutathione beads, soluble ligand, Western blot densitometry, FIG. 5B
[6] = target: GST-syntaxin 1A (Syn1A11) point mutant 12 (four point mutations) (Schistosoma japonicum; rat); assay: as above
[7] = target: GST-syntaxin 1A (Syn1A11) point mutant M4: V223A, Q226A (Schistosoma japonicum; rat); assay: as above
[8] = target: GST-syntaxin 1A (Syn1A11) point mutant M3: L212A, F216A (Schistosoma japonicum; rat); assay: as above
[9] = target: GST-syntaxin 1A (Syn1A11) point mutant M1: R198A, I202A (Schistosoma japonicum; rat); assay: as above
[10] = target: GST-syntaxin 1A (Syn1A11) point mutant 45 (Schistosoma japonicum; rat); assay: as above
[11] = target: GST-syntaxin 1A (Syn1A11) point mutant 13 (four point mutations) (Schistosoma japonicum; rat); assay: as above
[12] = target: GST-syntaxin 1A (Syn1A11) point mutant M2: L205A, I209A (Schistosoma japonicum; rat); assay: as above
[13] = target: GST-syntaxin 1A (Syn1A11) point mutant M5: I230A, I233A (Schistosoma japonicum; rat); assay: as above
[14] = target: GST-syntaxin 1A (Syn1A11) point mutant 34 (Schistosoma japonicum; rat); assay: as above
[15] = target: GST-syntaxin 1A H3 domain construct Syn 1A16 (amino acids 191-266) (Schistosoma japonicum; rat); assay: 20S complex assembly on GST-syntaxin beads with all four proteins together, ATPγS, 18° C. overnight MgCl2, Western blot densitometry, FIG. 6B
[16] = target: GST-syntaxin 1A deletion mutant Syn 1A13 (amino acids 4-221) (Schistosoma japonicum; rat); assay: as above
[17] = target: GST-syntaxin 1A cytoplasmic domain fusion protein (Syn 1A11, amino acids 4-266), immobilized on glutathione agarose beads (Schistosoma japonicum; rat); assay: as above
[18] = target: GST-syntaxin 1A deletion mutant Syn 1A6 (amino acids 4-190) (Schistosoma japonicum; rat); assay: as above
[19] = target: GST-syntaxin 1A deletion mutant Syn 1A17 (amino acids 4-240) (Schistosoma japonicum; rat); assay: as above
[20] = target: GST-syntaxin 1A deletion mutant Syn 1A13 (amino acids 4-221) (Schistosoma japonicum; rat); assay: GST-syntaxin deletion mutant on glutathione beads, soluble ligand, Western blot densitometry; FIG. 4C row 4 from top, row label only in the figure (assigned by Table 1 order and paragraph 328)
[21] = target: GST-syntaxin 1A cytoplasmic domain fusion protein (Syn 1A11, amino acids 4-266), immobilized on glutathione agarose beads (Schistosoma japonicum; rat); assay: GST-syntaxin deletion mutant on glutathione beads, soluble ligand, Western blot densitometry; FIG. 4C row 6 from top, row label only in the figure (assigned by Table 1 order and paragraph 328)
[22] = target: GST-syntaxin 1A deletion mutant Syn 1A5 (amino acids 4-114) (Schistosoma japonicum; rat); assay: GST-syntaxin deletion mutant on glutathione beads, soluble ligand, Western blot densitometry; FIG. 4C row 2 from top, row label only in the figure (assigned by Table 1 order and paragraph 328)
[23] = target: GST-syntaxin 1A deletion mutant Syn 1A17 (amino acids 4-240) (Schistosoma japonicum; rat); assay: 20S complex on GST-Syn 1A17 beads, ATP and Mg++, Western blot densitometry
[24] = target: GST-syntaxin 1A deletion mutant Syn 1A4 (amino acids 8-76) (Schistosoma japonicum; rat); assay: GST-syntaxin deletion mutant on glutathione beads, soluble ligand, Western blot densitometry; FIG. 4C row 1 from top, row label only in the figure (assigned by Table 1 order and paragraph 328)
[25] = target: GST-syntaxin 1A cytoplasmic domain fusion protein (Syn 1A11, amino acids 4-266), immobilized on glutathione agarose beads (Schistosoma japonicum; rat); assay: 20S complex assembly on GST-syntaxin beads with SNAP-25, VAMP, α-SNAP and NSF added together, ATP, 25° C., Western blot densitometry, FIG. 6A

His-tagged α-SNAP (soluble NSF attachment protein), soluble recombinant, sequence (P81125 whole entry): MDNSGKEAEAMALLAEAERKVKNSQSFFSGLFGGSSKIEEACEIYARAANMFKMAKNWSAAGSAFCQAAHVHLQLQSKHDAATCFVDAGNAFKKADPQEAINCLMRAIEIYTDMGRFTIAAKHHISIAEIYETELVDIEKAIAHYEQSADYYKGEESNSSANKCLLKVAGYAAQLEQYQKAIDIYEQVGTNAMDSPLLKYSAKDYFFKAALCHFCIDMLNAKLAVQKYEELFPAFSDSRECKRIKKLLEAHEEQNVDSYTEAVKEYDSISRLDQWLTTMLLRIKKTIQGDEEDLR
SNAP-25 (synaptosomal-associated protein of 25 kDa), soluble recombinant, sequence (chain): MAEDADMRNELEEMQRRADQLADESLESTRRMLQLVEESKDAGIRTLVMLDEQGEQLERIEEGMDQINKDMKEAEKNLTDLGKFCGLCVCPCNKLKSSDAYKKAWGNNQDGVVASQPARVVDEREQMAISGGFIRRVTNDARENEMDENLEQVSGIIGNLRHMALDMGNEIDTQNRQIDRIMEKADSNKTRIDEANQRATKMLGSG

densitometry pixel value [1] [pixel value]	percent dissociated in the presence of ATP and Mg++ [2] [%]	densitometry pixel value [3] [pixel value]	densitometry pixel value [4] [pixel value]	densitometry pixel value [5] [pixel value]	densitometry pixel value [6] [pixel value]	densitometry pixel value [7] [pixel value]	densitometry pixel value [8] [pixel value]	densitometry pixel value [9] [pixel value]	densitometry pixel value [10] [pixel value]	densitometry pixel value [11] [pixel value]	densitometry pixel value [12] [pixel value]	densitometry pixel value [13] [pixel value]	densitometry pixel value [14] [pixel value]	densitometry pixel value [15] [pixel value]	densitometry pixel value [16] [pixel value]	densitometry pixel value [17] [pixel value]	densitometry pixel value [18] [pixel value]	densitometry pixel value [19] [pixel value]	densitometry pixel value [20] [pixel value]	Substance	other results
414	0	1660	1490	633	23	43	23	53	7	15	36	25	10	1420	0	1040	0	1070	0	His-tagged α-SNAP (soluble NSF attachment protein), soluble recombinant (from UniProt P81125)	densitometry pixel value [21]: 1670 pixel value; densitometry pixel value [22]: 0 pixel value; percent dissociated in the presence of ATP and Mg++ [23]: 25%; densitometry pixel value [24]: 0 pixel value; densitometry pixel value [25]: 132 pixel value
555	5	623	839	875	361	754	866	586	640	143	672	824	712	504	1340	85	0	415	417	SNAP-25 (synaptosomal-associated protein of 25 kDa), soluble recombinant	densitometry pixel value [21]: 797 pixel value; densitometry pixel value [22]: 19 pixel value; percent dissociated in the presence of ATP and Mg++ [23]: 0%; densitometry pixel value [24]: 19 pixel value; densitometry pixel value [25]: 768 pixel value
2610	0	0	528	0	0	0	0	37	0	0	17	0	0	944	1310	691	0	812	0	VAMP (vesicle-associated membrane protein; VAMP 2), soluble recombinant	densitometry pixel value [21]: 286 pixel value; densitometry pixel value [22]: 0 pixel value; percent dissociated in the presence of ATP and Mg++ [23]: 0%; densitometry pixel value [24]: 0 pixel value; densitometry pixel value [25]: 32 pixel value
